The chains are these.
B1: F1*; the commonest letter at each place (parent)
chain: GAGACCGCAACTGAAAAGTTGTTATCACTTGTCGTAAGACACTTTGGATGGGTTGAAGTTCTGCACGTAGAAGCAAAAGGC

The variants in this data set derive from B1. Put plainly: fraction ligated after 30 min (ligated reads / total reads); higher = more ligase activity. The settings on record: with F1*sub RNA substrate (template-directed ligation), 42 °C. The method, then: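 Chip-synthesised pool of F1* ligase ribozyme variants (all single and double substitutions, single, double and triple deletions in the catalytic core and GAA bulge, plus designed variants) was transcribed with T7 and reacted as a pool with excess substrate F1*sub for 30 min at 42 C in 50 mM EPPS pH 8.5, 25 mM MgCl2. Ligated and unligated bands were separated by PAGE, barcoded by RT and deep sequenced; fraction ligated = ligated reads / total reads per variant, relative activity = FL / FL of wild type (0.826). Sequences are the DNA template of the ribozyme.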
For the variant GAGACCGCAACTGAAAAGTTGTTAGCACTTGTCGTAATACACTTTGGATGGGTTGAAGTTCTGCACGTAGAAGCAAAAGGC [T25G G38T], the fraction ligated is 0.659.

Consider GAGACCGCAACTGAAAAGTTGTTAGCACTTGTCGTAAAACACTTTGGATGGGTTGAAGTTCTGCACGTAGAAGCAAAAGGC [T25G G38A], for which the fraction ligated was found to be 0.676.

With GAGACCGCAACTGAAAAGTTGTTAGCACTTGTCGTAACACACTTTGGATGGGTTGAAGTTCTGCACGTAGAAGCAAAAGGC [T25G G38C], the fraction ligated is 0.165.

Turning to GAGACCGCAACTGAAAAGTTGTTAGCACTTGTCGTAAGACACTTTGGATAGGTTGAAGTTCTGCACGTAGAAGCAAAAGGC [T25G G50A], the fraction ligated was found to be 0.103.

In the case of GAGACCGCAACTGAAAAGTTGTTAGCACTTGTCGTAAGACACTTTGGATCGGTTGAAGTTCTGCACGTAGAAGCAAAAGGC [T25G G50C], the fraction ligated is 0.142.

Regarding GAGACCGCAACTGAAAAGTTGTTAGCACTTGTCGTAAGACACTTTGGATTGGTTGAAGTTCTGCACGTAGAAGCAAAAGGC [T25G G50T], the fraction ligated stood at 0.436.

Take GAGACCGCAACTGAAAAGTTGTTAGCACTTGTCGTAAGAGACTTTGGATGGGTTGAAGTTCTGCACGTAGAAGCAAAAGGC [T25G C40G]: the fraction ligated came to 0.58.

For GAGACCGCAACTGAAAAGTTGTTAGCACTTGTCGTAAGATACTTTGGATGGGTTGAAGTTCTGCACGTAGAAGCAAAAGGC [T25G C40T], the fraction ligated was found to be 0.732.

On to GAGACCGCAACTGAAAAGTTGTTAGCACTTGTCGTAAGAAACTTTGGATGGGTTGAAGTTCTGCACGTAGAAGCAAAAGGC [T25G C40A], for which the fraction ligated was 0.229.

Turning to GAGACCGCAACTGAAAAGTTGTTAGCACTTGTCGTAAGGCACTTTGGATGGGTTGAAGTTCTGCACGTAGAAGCAAAAGGC [T25G A39G], the fraction ligated was determined as 0.759.

Regarding GAGACCGCAACTGAAAAGTTGTTAGCACTTGTCGTAAGCCACTTTGGATGGGTTGAAGTTCTGCACGTAGAAGCAAAAGGC [T25G A39C], the fraction ligated stood at 0.373.

Regarding GAGACCGCAACTGAAAAGTTGTTAGCACTTGTCGTAAGTCACTTTGGATGGGTTGAAGTTCTGCACGTAGAAGCAAAAGGC [T25G A39T], the fraction ligated was determined as 0.393.

On to GAGACCGCAACTGAAAAGTTGTTACCACTTGTCGTAAGACACTTCGGATGGGTTGAAGTTCTGCACGTAGAAGCAAAAGGC [T25C T45C], for which the fraction ligated was determined as 0.0655.

Consider GAGACCGCAACTGAAAAGTTGTTACCACTTGTCGTAAGACACTTGGGATGGGTTGAAGTTCTGCACGTAGAAGCAAAAGGC [T25C T45G], for which the fraction ligated was found to be 0.0359.

On to GAGACCGCAACTGAAAAGTTGTTAGCACTTGTCGTAAGACACTTTCGATGGGTTGAAGTTCTGCACGTAGAAGCAAAAGGC [T25G G46C], for which the fraction ligated stood at 0.135.

For the variant GAGACCGCAACTGAAAAGTTGTTAGCACTTGTCGTAAGACACTTTTGATGGGTTGAAGTTCTGCACGTAGAAGCAAAAGGC [T25G G46T], the fraction ligated amounted to 0.134.

With GAGACCGCAACTGAAAAGTTGTTAGCACTTGTCGTAAGACACTTTAGATGGGTTGAAGTTCTGCACGTAGAAGCAAAAGGC [T25G G46A], the fraction ligated came out at 0.266.

With GAGACCGCAACTGAAAAGTTGTTAGCACTTGTCGTAAGACACTTTGGATGGGTTGTAGTTCTGCACGTAGAAGCAAAAGGC [T25G A56T], the fraction ligated was found to be 0.0925.

On to GAGACCGCAACTGAAAAGTTGTTAGCACTTGTCGTAAGACACTTTGGATGGGTTGGAGTTCTGCACGTAGAAGCAAAAGGC [T25G A56G], for which the fraction ligated was 0.0638.

GAGACCGCAACTGAAAAGTTGTTAGCACTTGTCGTAAGACACTTTGGATGGGTTGCAGTTCTGCACGTAGAAGCAAAAGGC [T25G A56C]: the fraction ligated was found to be 0.0423.

With GAGACCGCAACTGAAAAGTTGTTAGCACTTGTCGTAAGACACTTTGGATGGGTTCAAGTTCTGCACGTAGAAGCAAAAGGC [T25G G55C], the fraction ligated was 0.0471.

GAGACCGCAACTGAAAAGTTGTTAGCACTTGTCGTAAGACACTTTGGATGGGTTAAAGTTCTGCACGTAGAAGCAAAAGGC [T25G G55A]: the fraction ligated turned out to be 0.442.

As for GAGACCGCAACTGAAAAGTTGTTAGCACTTGTCGTAAGACACTTTGGATGGGTTTAAGTTCTGCACGTAGAAGCAAAAGGC [T25G G55T], the fraction ligated turned out to be 0.132.

As to GAGACCGCAACTGAAAAGTTGTTAGCGCTTGTCGTAAGACACTTTGGATGGGTTGAAGTTCTGCACGTAGAAGCAAAAGGC [T25G A27G], the fraction ligated came to 0.434.

In the case of GAGACCGCAACTGAAAAGTTGTTAGCTCTTGTCGTAAGACACTTTGGATGGGTTGAAGTTCTGCACGTAGAAGCAAAAGGC [T25G A27T], the fraction ligated was found to be 0.706.

Take GAGACCGCAACTGAAAAGTTGTTAGCCCTTGTCGTAAGACACTTTGGATGGGTTGAAGTTCTGCACGTAGAAGCAAAAGGC [T25G A27C]: the fraction ligated was determined as 0.705.

In the case of GAGACCGCAACTGAAAAGTTGTTAGCAGTTGTCGTAAGACACTTTGGATGGGTTGAAGTTCTGCACGTAGAAGCAAAAGGC [T25G C28G], the fraction ligated came to 0.541.

Turning to GAGACCGCAACTGAAAAGTTGTTAGCAATTGTCGTAAGACACTTTGGATGGGTTGAAGTTCTGCACGTAGAAGCAAAAGGC [T25G C28A], the fraction ligated stood at 0.348.

For the variant GAGACCGCAACTGAAAAGTTGTTAGCATTTGTCGTAAGACACTTTGGATGGGTTGAAGTTCTGCACGTAGAAGCAAAAGGC [T25G C28T], the fraction ligated was 0.675.

For the variant GAGACCGCAACTGAAAAGTTGTTAGCACTTGTCGTAAGACACTTTGGATGGGTTGAAGTTCTGCACGTAGAAGCAAAAGGC [T25G], the fraction ligated is 0.784.

For GAGACCGCAACTGAAAAGTTGTTAGCACTTGTCGTAAGACAATTTGGATGGGTTGAAGTTCTGCACGTAGAAGCAAAAGGC [T25G C42A], the fraction ligated stood at 0.737.

For GAGACCGCAACTGAAAAGTTGTTAGCACTTGTCGTAAGACAGTTTGGATGGGTTGAAGTTCTGCACGTAGAAGCAAAAGGC [T25G C42G], the fraction ligated worked out at 0.737.

Take GAGACCGCAACTGAAAAGTTGTTAGCACTTGTCGTAAGACATTTTGGATGGGTTGAAGTTCTGCACGTAGAAGCAAAAGGC [T25G C42T]: the fraction ligated came to 0.797.

Regarding GAGACCGCAACTGAAAAGTTGTTAGCACTTGTCGTAAGACACTTTGAATGGGTTGAAGTTCTGCACGTAGAAGCAAAAGGC [T25G G47A], the fraction ligated was 0.363.

The record behind these values is the supplement of paper PMC6755084.
